What all share (assay): SPR; IgG amine-coupled to CM5 chip (Biacore 3000); GST-ABD or GST at 54, 108, 216 and 432 nM, 10 μl/min for 7 min; 25 °C; PBS running buffer; 1:1 Langmuir model
(In general: In SPR one partner is held on a chip, and binding of the other changes the refractive index at the surface.)

Assay [1] deals with Rabbit IgG (rabbit).
The target of assay [2] is Rat IgG (rat).
For assay [3], the target named is Mouse IgG (mouse).

By Kd is commonly meant the free concentration of one partner at which half of the binding sites on the other are occupied at equilibrium, for simple one-to-one binding. Read a low Kd as a tighter complex. The term koff denotes a measure of how fast the partners let go of each other. Lower therefore signals slow dissociation. The term kon denotes the second-order rate constant of association. Read a high kon as faster complex formation. Turning to “GST-ABD (recombinant secondary antibody mimic; glutathione-S-transferase fused through a linker to the antibody-binding domain of protein A) (domain or fragment)”, in assay [1], the Ka was 7.6e+08 M⁻¹, the Kd came out at 1.31 nM, the koff is 9e-05 s⁻¹ and the kon amounted to 66600 M⁻¹ s⁻¹. In addition, in assay [2], the Ka was 2.3e+08 M⁻¹, the dissociation constant Kd was 4.34 nM, the dissociation rate constant (koff) came to 0.00022 s⁻¹ and the kon was 51800 M⁻¹ s⁻¹. In assay [3], this substance showed a Ka of 5.9e+07 M⁻¹, a Kd of 16.8 nM, a koff of 0.00107 s⁻¹ and an on-rate (kon) of 63800 M⁻¹ s⁻¹.

The record behind these values is PMC4827060.
